From publication PMC10214663

Biological target: FGF4-Fc (human) (UniProt P08620)
Test: BLI; Octet RED K2; FGF4-Fc (25 µg/mL) on Protein-A sensors, galectins at 0.2 µM to 6 µM; heterogeneous ligand (2:1) model; steady-state analysis for galectin-1

FGF4-Fc (human), sequence (P08620 31-206): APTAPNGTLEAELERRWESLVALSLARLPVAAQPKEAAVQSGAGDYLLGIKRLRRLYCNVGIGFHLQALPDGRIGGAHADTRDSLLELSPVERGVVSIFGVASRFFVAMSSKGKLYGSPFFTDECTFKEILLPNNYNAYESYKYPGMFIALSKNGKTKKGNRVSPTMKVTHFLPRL

KD1: 724 nM
KD2: 140 nM
KOff1: 0.0755 s⁻¹
KOff2: 0.000115 s⁻¹
Kon1: 104000 M⁻¹ s⁻¹
Kon2: 823 M⁻¹ s⁻¹
Substance: galectin-8 (natural protein)
